From patent US20240101647A1 (VIB VZW, published 2024)
Where a chain is given by its changes, count along the chain named.

B1: VHH3.42 (VHH)
VHH: QVQLQESGGGLVQPGGSLRLSCAASGSAVSINDMGWYRQPPGKQRELVATITKTGSTNYADSVKGRFTISRDNAKNAVYLEMNSLKPEDTATYYCNAWLPYGMGPDYYGMELWGKGTQVTVSS
B2: VHH3.92 (VHH)
VHH: B1 VHH with S27K, N32S, S56N, V63A, K64Q, N76S, N83A, T92V
B3: VHH3.117 (VHH)
VHH: B1 VHH with S27K, N32S, V63A, K64Q, A74T, N76S, N83K, T92V

Assays:
BSA = biological target: T1, BSA (UniProt P02769 25-607); test: ELISA, coated BSA
T1 construct: also called Bovine Serum Albumin

[1] = biological target: SARS-CoV-2 spike protein on VSV-delG pseudovirus particles or on cells (SARS-CoV-2, UniProt P0DTC2 14-1273); test: cell-based or functional assay

T1 sequence (P02769 25-607 limits assumed): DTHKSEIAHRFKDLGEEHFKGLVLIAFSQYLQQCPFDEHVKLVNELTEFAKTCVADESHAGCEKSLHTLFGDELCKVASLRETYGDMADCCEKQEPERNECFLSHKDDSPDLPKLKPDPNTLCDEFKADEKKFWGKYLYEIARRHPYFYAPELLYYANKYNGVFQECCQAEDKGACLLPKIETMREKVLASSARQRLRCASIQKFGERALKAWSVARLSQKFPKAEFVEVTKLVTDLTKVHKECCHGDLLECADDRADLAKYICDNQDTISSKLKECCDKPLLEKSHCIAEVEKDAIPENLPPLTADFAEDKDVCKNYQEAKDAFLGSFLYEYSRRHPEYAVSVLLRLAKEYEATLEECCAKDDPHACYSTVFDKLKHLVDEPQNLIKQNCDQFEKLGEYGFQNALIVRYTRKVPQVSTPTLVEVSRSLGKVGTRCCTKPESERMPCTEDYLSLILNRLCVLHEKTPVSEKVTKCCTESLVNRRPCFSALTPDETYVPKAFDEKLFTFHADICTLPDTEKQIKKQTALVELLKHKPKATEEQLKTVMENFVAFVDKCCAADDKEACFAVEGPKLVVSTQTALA

Binder | binding result (BSA) | neutralization relative to VHH72_h1_S56A [1]
B1 | no binding | ~6 fold
B2 |  | ~6 fold
B3 | no binding | ~6 fold
